Measured values: US20230340140A1 (INNATE PHARMA, published 2023)

Columns and labels:
[1] = biological target: T1, Human C5aR (C5aR1) (human, UniProt P21730 1-350); test: cell-based or functional assay
T1 sequence: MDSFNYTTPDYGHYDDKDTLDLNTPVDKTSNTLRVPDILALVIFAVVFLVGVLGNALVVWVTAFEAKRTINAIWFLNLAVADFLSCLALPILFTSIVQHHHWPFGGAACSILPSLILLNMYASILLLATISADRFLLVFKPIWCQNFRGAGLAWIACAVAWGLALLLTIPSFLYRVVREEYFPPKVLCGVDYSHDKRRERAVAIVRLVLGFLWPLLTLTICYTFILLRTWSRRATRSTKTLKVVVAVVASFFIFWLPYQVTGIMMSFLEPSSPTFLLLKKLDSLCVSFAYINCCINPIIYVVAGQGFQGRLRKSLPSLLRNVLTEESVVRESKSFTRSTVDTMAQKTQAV

[2] = biological target: T1, Human C5aR (C5aR1); test: FACS titration on human neutrophils in vitro; FACS titration on human neutrophils in vitro, given in nM
[3] = biological target: T1, Human C5aR (C5aR1); test: EC50 of C5aR saturation in the PD part of the PKPD model, derived from PK/receptor saturation data of the phase I trial; PD parameter of the PKPD model, from phase I PK/receptor saturation data; not in vitro
Text: A PKPD model was built in Phoenix 64 WinNonLin version 8.1.0.3530, to predict avdoralimab serum concentrations in blood post s.c. administration, as well as C5aR saturation. Pharmacokinetics of therapeutic mAbs are usually modelled using a two-compartment model (Deng et al. 2011 MAbs 3(1): 61-66). Based on the PK results described in Example 1, avdoralimab is expected to display PK properties similar to other therapeutic antibodies in humans, except for compound-specific target-mediated drug disposition (TMDD). This TMDD effect can be modelled by an additional non-linear elimination added to the model (Wang et al. 2016 Biopharm. Drug Dispos. 37: 51-65). […] Absorption rate (Ka) and bioavailability (Ba) for s.c. administration were estimated based on PK results for Example 1. EC₅₀ in the PD part of PKPD model is derived from PK/RSA data observed in phase I clinical trial, and is similar to EC₅₀ binding to human neutrophils in vitro=0.34 nM=51 ng/mL in FACS titration assays.

B1: Avdoralimab (antibody, human IgG1, kappa, V domains shown)
VH: EVQLVESGGGLVQPGGSLRLSCAASGFTFSSYVMHWVRQATGKGLEWVSAIDTGGGTYYADSVKGRFTISRENAKNSLYLQMNSLRAGDTAVYYCARDYYYYASGSYYKAFDIWGQGTMVTVSS
VL: EIVLTQSPGTLSLSPGERATLSCRASQSVSSRYLAWYQQKPGQAPRLLIYGASSRATGIPDRFSGSGSGTDFTLTISRLEPEDFAVYYCQQYGSPLTFGQGTKLEIKR
notes: also called IPH5401
[1]
  EC50 for inhibition of C5a-induced CD11b expression on neutrophils in human whole blood (flow cytometry, MedFI, normalized): 0.34 µg/mL
[2]
  EC50: 340 pM
[3]
  EC50: 0.05 µg/mL
